Each substance was assayed against recombinant human IL-1β (human) (UniProt P01584) (assay: cell-based or functional assay).
Chain of UniProt P01584 (P01584 117-269 limits assumed): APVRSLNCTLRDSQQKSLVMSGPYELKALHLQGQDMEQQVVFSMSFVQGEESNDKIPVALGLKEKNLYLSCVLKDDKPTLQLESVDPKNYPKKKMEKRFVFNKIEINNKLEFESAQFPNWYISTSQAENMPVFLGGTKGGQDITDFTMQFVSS

| IC50 pM (HEK293/NFκB-luciferase bioassay, IL-1β at 4 pM) [pM] | Substance |
| --- | --- |
| 23 | hIL-1RI.TG.hFc.ARA.CTP.TG.hFc.ARA.hIL-1RAcP (Fc fusion) |
| 100 | hIL-1RAcp.hIL-1R1.TG.hFc.ARA.CTP.TG.hFc (Fc fusion) |
| 3400 | hIL-1RAcp.hIL-1R1.myc.myc.His6 (receptor) |

Reference: patent US20070087411A1
